Experimental data: patent publication US20250369024A1, “Acyloin Condensation Reactions, Enzymes, and Products Thereof” (Mojia Biotech Pte. Ltd., priority 2023, published 2025)

Columns and labels:
Format in all cases: cell-based, E. coli
Methional = assay: HACS screening, methional-C1 condensation (resting cells), desmeninol; details: 20 mM methional and 20 mM formate, 3 hours
Text: (§1) To implement the C1 elongation pathway for leucic acid production in vivo, we engineered vectors to independently control expression of various HACS candidates and the acyl-CoA transferase from Clostridium aminobutyricum (CaAbfT), with HACS under control of the IPTG-inducible T7 promoter in pCDFDuet-1 and CaAbfT under control of a cumate-inducible T5 promoter in pETDuet-1. As a host for these vectors, we used an engineered strain of E. coli based on MG1655(DE3) with knockouts for formaldehyde (ΔfrmA) and formate (ΔfdhF ΔfdnG ΔfdoG) oxidation as well as for glycolate utilization (ΔglcD).
(§2) In vivo product synthesis was conducted using M9 minimal media (6.78 g/L Na2HPO4, 3 g/L KH2PO4, 1 g/L NH4Cl, 0.5 g/L NaCl, 2 mM MgSO4, 100 μM CaCl2), and 15 μM thiamine-HCl) unless otherwise stated. Cells were initially grown in 96-deep well plates (USA Scientific, Ocala, FL) containing 0.5 mL of the above media further supplemented with 20 g/L glycerol, 10 g/L tryptone, and 5 g/L yeast extract. […]
(§3) Cells from the above pre-cultures were then centrifuged (4000 rpm, 22° C.), washed with the above minimal media without any carbon source, and resuspended with 1 mL of above minimal media containing indicated amounts of carbon source. […] After incubation at 30° C. for 3 hours, the cells were pelleted by centrifugation and the media was analyzed using HPLC.

Glycolaldehyde = assay: HACS screening, glycolaldehyde-C1 condensation (resting cells), glyceric acid; details: 20 mM glycolaldehyde and 20 mM formate, 3 hour
Text: as §1, with “glyceric” for “leucic”
as §2
as §3, with “hour,” for “hours,”

glyoxylic acid = assay: HACS screening, glyoxylic acid-C1 condensation (resting cells), tartronic acid; details: 5 mM glyoxylic acid and 20 mM formate; 1 hour
Text: as §1, with “tartronic” for “leucic”
as §2, with “containing 0.2” for “containing 0.5”
as §3, with “1 hour,” for “3 hours,”

B1: RuHACL: Engineered 2-hydroxyphytanoyl-CoA lyase [Rhodospirillales bacterium URHD0017], SEQ ID NO: 1 (protein)
chain: MSEVDGATLIARSLKQQGIDHLFGVVGFPITAIAAAAQKEGVAYLGMRNEQSAAYAAAAYGYLTGRPGAAVVVTGPGVVHGLSGLANAQQNCWPMILIGGASETYRGGMGAFQEERQVLIASPFCKFAHGIESVARIPFYVEMATRNAIYGRPGATYLDMPDDIIRGTCETDKIAQAERVPEAPRSVAPAENVEAALDLLEKAQRPLVLLGKGMAWSRGEDEVRAFIERTQVPFVRSPMGKGVMPDDHPLSASAARTLALQQADVIFLMGARLNWIFHFGLPPRYAKDVKVIQLDIAPEEIGHNKPTEVALVGDGKAIMAQLNKALVNRQWFHPKDTPWRQALTKKAAENVATIKPQVDDDQGPAGYYRALRDVAAWMPKNAILSAEGANTMDIGLTQLASSNARSVLNAGTYGTMGVGLGQAIAAAVSDPSRPVIHLSGDSAIGFSGMEMETLVRYNLPVKIVVLNNGGIGPGMPEIPENPMFNLKPNALIYGARYDKVMEAFGGKGIFVKEPKDIRKALDEAMAFKGPALVNVVLSQGSTRKAQQFAWHS
modifications: Rhodospirillales bacterium URHD0017 engineered 2-hydroxyphytanoyl-CoA lyase
Product flux, substrate Methional, product Desmeninol (Methional): 20.0 μM/OD/h | Product flux, substrate Glycolaldehyde, product Glycerate (Glycolaldehyde): 7.2 μM/OD/h | tartronic acid productivity of best candidate (glyoxylic acid): up to 13 μM/hr per OD600
